Values joined by “and” are separate entries in the source; they are usually repeats but may differ in a detail not shown here. Equal entries are not always repeated. Where two headings read alike, the source gives them in different places. Bridge positions count the residues as written; N and C are the ends. Square brackets hold non-standard residues; d marks the D form. Primed or numbered codes have the meaning given here. Side chains are listed from the residue outwards. Ends that are not written are not given here. * marks the point of attachment. Bip = N[C@@H](Cc1ccc(-c2ccccc2)cc1)C(=O)O; Gd^T = not defined here; Gd^T″ = GdDTPA-thiourea; Cbz = O=C(OCc1ccccc1)*; Dap = NC[C@H](N)C(=O)O
Columns and labels:
[1] = tested on: perfused Langendorff rat heart; assay: Washout kinetics from perfused Langendorff rat heart; details: 10 minutes perfusion with buffer after infusion
[2] = biological target: T1, rat type I collagen (Rattus norvegicus, UniProt P02454+P02466); assay: MR phantom imaging of collagen gel samples at 4.7 T; details: centrifuged samples 4 and 8, 4.7 T
T1 construct: Rat collagen (acid soluble, type I, rat tail); purchased Upstate USA, Inc 08-115; host or cells: rat tail
T1 sequence (P02454 152-1207 limits assumed): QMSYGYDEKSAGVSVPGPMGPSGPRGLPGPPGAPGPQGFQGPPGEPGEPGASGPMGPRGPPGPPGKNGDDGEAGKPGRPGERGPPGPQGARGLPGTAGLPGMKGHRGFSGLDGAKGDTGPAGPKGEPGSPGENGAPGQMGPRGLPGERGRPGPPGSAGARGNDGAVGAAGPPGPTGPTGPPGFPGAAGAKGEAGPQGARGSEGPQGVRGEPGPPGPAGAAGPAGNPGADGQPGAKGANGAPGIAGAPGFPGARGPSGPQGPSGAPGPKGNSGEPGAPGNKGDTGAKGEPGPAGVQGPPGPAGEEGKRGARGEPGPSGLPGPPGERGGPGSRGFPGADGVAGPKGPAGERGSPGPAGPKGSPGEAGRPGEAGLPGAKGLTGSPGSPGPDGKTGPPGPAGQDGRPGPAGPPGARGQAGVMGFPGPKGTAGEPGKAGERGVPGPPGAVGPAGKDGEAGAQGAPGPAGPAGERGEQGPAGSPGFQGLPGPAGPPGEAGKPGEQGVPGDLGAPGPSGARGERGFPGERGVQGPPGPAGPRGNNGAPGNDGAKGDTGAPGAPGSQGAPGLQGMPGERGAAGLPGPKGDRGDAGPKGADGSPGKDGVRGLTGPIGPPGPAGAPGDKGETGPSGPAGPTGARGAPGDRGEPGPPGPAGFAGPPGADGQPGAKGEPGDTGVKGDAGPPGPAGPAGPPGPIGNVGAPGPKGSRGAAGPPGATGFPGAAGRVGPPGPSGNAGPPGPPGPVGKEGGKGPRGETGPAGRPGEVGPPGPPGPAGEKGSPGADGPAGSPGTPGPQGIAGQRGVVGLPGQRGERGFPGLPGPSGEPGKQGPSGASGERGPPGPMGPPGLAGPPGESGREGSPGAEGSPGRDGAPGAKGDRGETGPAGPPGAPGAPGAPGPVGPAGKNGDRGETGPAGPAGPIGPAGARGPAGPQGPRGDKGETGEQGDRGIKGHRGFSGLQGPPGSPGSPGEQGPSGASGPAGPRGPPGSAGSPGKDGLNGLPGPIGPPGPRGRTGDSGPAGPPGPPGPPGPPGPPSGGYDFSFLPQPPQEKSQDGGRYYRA
T1 sequence (P02466 86-1125 limits assumed): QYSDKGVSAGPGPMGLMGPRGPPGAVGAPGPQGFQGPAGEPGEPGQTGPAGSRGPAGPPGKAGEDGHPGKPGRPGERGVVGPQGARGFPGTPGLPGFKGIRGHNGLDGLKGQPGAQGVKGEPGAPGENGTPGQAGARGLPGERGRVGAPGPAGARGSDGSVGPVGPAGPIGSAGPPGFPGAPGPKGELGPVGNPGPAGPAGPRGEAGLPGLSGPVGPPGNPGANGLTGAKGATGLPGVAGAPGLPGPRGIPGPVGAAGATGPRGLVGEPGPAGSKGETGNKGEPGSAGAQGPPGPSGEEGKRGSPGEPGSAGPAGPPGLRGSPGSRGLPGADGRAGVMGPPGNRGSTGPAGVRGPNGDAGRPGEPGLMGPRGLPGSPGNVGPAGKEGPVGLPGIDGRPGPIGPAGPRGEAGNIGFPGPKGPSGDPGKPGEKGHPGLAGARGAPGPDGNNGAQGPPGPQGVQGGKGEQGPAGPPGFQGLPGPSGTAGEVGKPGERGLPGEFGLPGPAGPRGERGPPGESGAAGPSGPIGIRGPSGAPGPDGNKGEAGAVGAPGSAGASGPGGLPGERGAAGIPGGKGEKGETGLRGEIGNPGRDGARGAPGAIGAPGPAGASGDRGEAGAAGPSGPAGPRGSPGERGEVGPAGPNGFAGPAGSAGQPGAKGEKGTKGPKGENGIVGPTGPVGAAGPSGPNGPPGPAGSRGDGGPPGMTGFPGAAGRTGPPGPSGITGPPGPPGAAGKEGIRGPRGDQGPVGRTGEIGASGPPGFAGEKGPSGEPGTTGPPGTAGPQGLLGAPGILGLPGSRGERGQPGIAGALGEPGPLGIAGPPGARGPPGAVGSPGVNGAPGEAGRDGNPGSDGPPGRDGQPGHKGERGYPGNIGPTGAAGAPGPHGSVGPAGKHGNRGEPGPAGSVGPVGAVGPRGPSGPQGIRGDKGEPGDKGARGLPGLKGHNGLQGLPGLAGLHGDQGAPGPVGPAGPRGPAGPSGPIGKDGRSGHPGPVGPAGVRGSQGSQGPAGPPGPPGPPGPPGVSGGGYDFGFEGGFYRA
Experimental: Samples: • 1. […] Sample prepared as sample 2, but centrifuged to separate insoluble rat collagen gel • 5. Sample prepared as sample 3, but centrifuged to separate insoluble human collagen gel • 6. 27 μM GdDTPA solution in PBS, pH 7.4 • 7. 27 μM GdDTPA in a solution of 5.0 μM rat type I collagen in 10 mM phosphate buffer, pH 5 incubated at 37° C. overnight to form a gel • 8. Sample prepared as in sample 7, but centrifuged to separate insoluble rat collagen gel • 9. Homogeneous gel of 5 μM rat collagen • 10. Homogeneous gel of 7.5 μM human collagen
Samples for imaging were placed in glass tubes that were in turn placed in tubes containing water. Images were acquired at 4.7 T on a Bruker Biospec Imager using a Multi-Slice Multi-Echo Method with variable Relaxation Delay (MSMEVTR) experiment. The spin echo time and the relaxation delay were set to TE=11.2 ms and TR=500 ms, respectively with a flip angle of 30°. Images were acquired of sample 2, sample 4, sample 7, and sample 8. […] Sample 7 and 8 show uniform signal intensity.

[3] = tested on: perfused Langendorff rat heart; assay: Equilibrium binding to perfused Langendorff rat heart; details: Buffer 3.0 μM
Experimental: After deep anesthesia with pentobarbital (80 mg/kg ip), the chest cavity of a male Sprague Dawley rat (300 g) was opened, retracted and the heart was removed immediately and placed in an ice-cold normal Krebs-Henseleit (K-H) solution (NaCl, 118 mM; KCl, 4.7 mM; CaCl2, 2.5 mM; MgSO4, 1.2 mM; KH2PO4, 1.2 mM; NaHCO3, 25 mM; glucose, 5.5 mM). A K-H buffer filled 20 Gauge needle was inserted into the apex of the heart penetrating into the bottom of the chamber. This was attached to a pressure transducer used to record and monitor heart function. Perfusion pressure (˜60 mmHg) was monitored using a second transducer. The heart was perfused at a constant flow rate of 10-12 mL/min with 37° C. […]
Two peptide test articles, a high collagen binding peptide (SEQ ID NO: 144) and a low collagen binding peptide (SEQ ID NO: 173), are compared to GdDTPA. […] The amount of radioactivity added to the buffer solution was 1-5 μCi.
The heart was perfused for a period of 10 minutes and the perfusion solution was recycled through the heart. […] The heart was then weighed and the radioactivity in the heart measured with a Packard Cobra 5003 Gamma Scintillation counter. An aliquot of the K-H buffer was also weighed and counted. […]
The dual peptide gadolinium tetramer (Compound ID 803) was compared to GdDTPA. […] The amount of radioactivity added to the buffer solution was 1-5 μCi.

[4] = biological target: T2, human collagen type I (acid soluble, extracted from placenta, Sigma C7774) (human, UniProt P02452 162-1218; P08123 80-1119); assay: dried collagen assay
T2 construct: gelled and dried as a fibril film in the assay; also called dried human collagen; h-Collagen
T2 sequence (P02452 162-1218 limits assumed, chain 1 of 2): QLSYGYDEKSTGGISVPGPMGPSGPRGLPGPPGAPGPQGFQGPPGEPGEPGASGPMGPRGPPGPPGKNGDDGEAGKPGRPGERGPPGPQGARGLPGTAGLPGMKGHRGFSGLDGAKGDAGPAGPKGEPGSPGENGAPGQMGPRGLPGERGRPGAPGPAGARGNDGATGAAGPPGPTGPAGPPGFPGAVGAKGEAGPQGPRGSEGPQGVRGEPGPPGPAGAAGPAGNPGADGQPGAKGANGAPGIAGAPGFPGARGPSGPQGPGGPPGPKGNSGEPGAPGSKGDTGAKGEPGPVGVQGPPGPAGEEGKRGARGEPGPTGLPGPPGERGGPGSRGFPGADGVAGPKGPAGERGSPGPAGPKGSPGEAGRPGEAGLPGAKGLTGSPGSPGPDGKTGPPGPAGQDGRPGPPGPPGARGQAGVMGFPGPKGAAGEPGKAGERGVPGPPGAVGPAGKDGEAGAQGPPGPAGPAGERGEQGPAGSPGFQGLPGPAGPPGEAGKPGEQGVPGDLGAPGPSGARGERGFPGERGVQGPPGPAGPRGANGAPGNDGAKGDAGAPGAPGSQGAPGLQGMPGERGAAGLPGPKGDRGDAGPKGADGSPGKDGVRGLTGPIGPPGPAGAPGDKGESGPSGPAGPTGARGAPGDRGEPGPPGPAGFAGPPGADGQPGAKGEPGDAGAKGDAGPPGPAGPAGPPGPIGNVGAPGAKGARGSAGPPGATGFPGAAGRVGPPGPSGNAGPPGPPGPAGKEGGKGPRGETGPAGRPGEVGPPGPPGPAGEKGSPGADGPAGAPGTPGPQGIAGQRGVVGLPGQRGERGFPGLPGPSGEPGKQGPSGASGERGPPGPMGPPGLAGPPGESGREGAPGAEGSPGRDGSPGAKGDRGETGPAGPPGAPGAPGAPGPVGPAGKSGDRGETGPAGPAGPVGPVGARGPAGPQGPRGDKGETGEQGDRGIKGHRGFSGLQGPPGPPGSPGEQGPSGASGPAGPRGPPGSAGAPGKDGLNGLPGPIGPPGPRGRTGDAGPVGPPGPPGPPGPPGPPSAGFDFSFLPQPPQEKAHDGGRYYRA
T2 sequence (P08123 80-1119 limits assumed, chain 2 of 2): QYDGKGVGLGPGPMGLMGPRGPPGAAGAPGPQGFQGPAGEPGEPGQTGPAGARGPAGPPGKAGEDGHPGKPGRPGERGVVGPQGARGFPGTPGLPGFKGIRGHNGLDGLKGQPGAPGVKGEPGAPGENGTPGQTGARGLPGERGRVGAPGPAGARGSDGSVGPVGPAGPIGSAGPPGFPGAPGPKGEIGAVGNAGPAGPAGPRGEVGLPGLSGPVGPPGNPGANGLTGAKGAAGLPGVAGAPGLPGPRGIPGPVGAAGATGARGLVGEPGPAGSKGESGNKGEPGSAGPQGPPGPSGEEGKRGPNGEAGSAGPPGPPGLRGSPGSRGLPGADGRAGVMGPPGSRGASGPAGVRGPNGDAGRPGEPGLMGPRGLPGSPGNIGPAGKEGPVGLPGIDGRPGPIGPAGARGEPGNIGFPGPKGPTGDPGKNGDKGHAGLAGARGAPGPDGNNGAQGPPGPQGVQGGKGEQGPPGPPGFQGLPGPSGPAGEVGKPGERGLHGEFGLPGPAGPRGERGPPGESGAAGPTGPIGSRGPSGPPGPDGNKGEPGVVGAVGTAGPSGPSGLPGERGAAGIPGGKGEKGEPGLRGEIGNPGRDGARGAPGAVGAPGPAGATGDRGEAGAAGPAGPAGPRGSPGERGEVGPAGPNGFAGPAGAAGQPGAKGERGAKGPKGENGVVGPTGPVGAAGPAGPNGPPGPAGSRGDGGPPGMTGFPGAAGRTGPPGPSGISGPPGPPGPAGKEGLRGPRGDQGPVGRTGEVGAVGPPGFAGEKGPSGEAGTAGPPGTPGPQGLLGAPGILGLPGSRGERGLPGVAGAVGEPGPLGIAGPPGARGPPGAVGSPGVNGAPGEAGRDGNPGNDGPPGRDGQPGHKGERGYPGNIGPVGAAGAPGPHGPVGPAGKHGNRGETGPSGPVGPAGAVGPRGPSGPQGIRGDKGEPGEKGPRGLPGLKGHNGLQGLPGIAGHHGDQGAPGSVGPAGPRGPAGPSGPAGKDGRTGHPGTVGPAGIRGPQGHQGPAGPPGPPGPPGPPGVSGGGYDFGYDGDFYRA
Experimental: (§1) An additional 90 μL is reserved in a HPLC glass vial as a measure of the total concentration.

[5] = biological target: T3, rat collagen (acid soluble, type I, rat tail, Upstate 08-115) (rat, UniProt P02454 152-1207; P02466 86-1125); assay: dried collagen assay
T3 construct: also called dried rat collagen; insoluble rat collagen
T3 sequence (P02454 152-1207 limits assumed, chain 1 of 2): as the sequence (P02454 152-1207 limits assumed) above
T3 sequence (P02466 86-1125 limits assumed, chain 2 of 2): as the sequence (P02466 86-1125 limits assumed) above
Experimental: as §1

[6] = biological target: T2, human collagen type I (acid soluble, …); assay: dried collagen assay; remark: listed apart in the source
[7] = biological target: T3, rat collagen (acid soluble, type I, rat …); assay: dried collagen assay; remark: listed apart in the source
[8] = biological target: T2, human collagen type I (acid soluble, …); assay: dried collagen assay; remark: listed apart in the source
[9] = biological target: T3, rat collagen (acid soluble, type I, rat …); assay: dried collagen assay; remark: listed apart in the source
[10] = biological target: T2, human collagen type I (acid soluble, …); assay: dried collagen assay; remark: listed apart in the source
[11] = biological target: T3, rat collagen (acid soluble, type I, rat …); assay: dried collagen assay; remark: listed apart in the source
[12] = biological target: T2, human collagen type I (acid soluble, …); assay: dried collagen assay; remark: listed apart in the source
[13] = biological target: T3, rat collagen (acid soluble, type I, rat …); assay: dried collagen assay; remark: listed apart in the source

With `O=C([O-])CN(CCN(CC(=O)[O-])CC(=O)O)CCN(CC(=O)[O-])CC(=O)O.[Gd+3]` [GdDTPA, gadolinium diethylenetriaminepentaacetate] the “percent of compound present at 0 minutes post infusion that remains at 10 minutes” value [1] was 0.5% and 2.2% and the “signal of centrifuged collagen gel relative to supernatant” value [2] was “no increased concentration of GdDTPA in the gel relative to the supernatant”.

In the case of “Q W T C S G D E Y T w H C N Y E (GQWTCSGDEYT[dW]HCNYE; disulfide 5-14 (inferred)) [SEQ ID NO: 173, -G- Linker at the N-terminus]”, the “specific heart uptake” value [3] is reported as “no specific uptake”.

B1: SEQ ID NO: 110 (peptide)
peptide: YSACYQAGCYIY
modifications: disulfide 4-9 (inferred)
For B1, the “% bound” value [4] was 10% and the “% bound” value [5] was 2%.

B2: Comp ID 869 (peptide)
peptide: GQWHCTTSFPHHYCLYG
modifications: not fully specified; Gd^T-GQWHCTTSFPHHYCLYG
With B2 the “% bound” value [6] was 46% and the “% bound” value [7] was 37%.

B3: Comp ID 898 (peptide)
peptide: {Gd^T}-GQWHCT[dS]RFPHHYCLYG
modifications: disulfide 5-14 (inferred); not fully specified (C-terminus); printed as Gd^T-GQWHCTsRFPHHYCLYG; reading uncertain
In the case of B3, the “% bound” value [6] is reported as 5%.

B4: Comp ID 900 (peptide)
peptide: {Gd^T}-GQWHCT[dR]RFPHHYCLYG
modifications: disulfide 5-14 (inferred); not fully specified (C-terminus); printed as Gd^T-GQWHCTrRFPHHYCLYG; reading uncertain
For B4, the “% bound” value [6] was 4%.

B5: Comp ID 897 (peptide)
peptide: {Gd^T}-GQWHCT[dN]RFPHHYCLYG
modifications: disulfide 5-14 (inferred); not fully specified (C-terminus); printed as Gd^T-GQWHCTnRFPHHYCLYG; reading uncertain
B5 was tested, and the “% bound” value [6] was 4%.

B6: SEQ ID NO: 116 (peptide)
peptide: DWTCSGDHLTWHCNYG
modifications: disulfide 4-13 (inferred)
With B6 the “% bound” value [8] was 58% and the “% bound” value [9] was 35%.

B7: SEQ ID NO: 117 (peptide)
peptide: DWTCSGDHLTWKCNYG
modifications: disulfide 4-13 (inferred)
In the case of B7, the “% bound” value [8] is reported as 38% and the “% bound” value [9] is reported as 24%.

B8: SEQ ID NO: 114 (peptide)
peptide: WTCSGDEYTWHCNYE
modifications: disulfide 3-12 (inferred)
B8 was tested, and the “% bound” value [8] was 19% and the “% bound” value [9] was 14%.

B9: SEQ ID NO: 118 (peptide)
peptide: DWTCSGNHLTWYCNYG
modifications: disulfide 4-13 (inferred)
In the case of B9, the “% bound” value [8] is reported as 68% and the “% bound” value [9] is reported as 67%.

B10: SEQ ID NO: 115 (peptide)
peptide: DWTCSGDPYTWHCNYE
modifications: disulfide 4-13 (inferred)
With B10 the “% bound” value [8] was 39% and the “% bound” value [9] was 23%.

B11: SEQ ID NO: 119 (peptide)
peptide: DWTCSGDEFTWHCNYE
modifications: disulfide 4-13 (inferred)
B11 was tested, and the “% bound” value [8] was 55% and the “% bound” value [9] was 55%.

B12: SEQ ID NO: 109 (peptide)
peptide: YSACYQAGCWIW
modifications: disulfide 4-9 (inferred)
With B12 the “% bound” value [4] was 21% and the “% bound” value [5] was 37%.

B13: Comp ID 951 (peptide)
peptide: {Gd^T″}-GK([Gly-Gd^T″])WHCTTYFPHH[Bip]CLYG
modifications: disulfide 5-14; not fully specified (C-terminus); printed as Gd^T-G-K(G.Gd^T)-WHCTTYFPHH-Bip-CLYG
With B13 the “% bound” value [6] was 45%.

B14: SEQ ID NO: 123 (peptide)
peptide: GQWTCSGDEYTWHCNY
modifications: disulfide 5-14 (inferred)
With B14 the “% bound” value [10] was 59% and the “% bound” value [11] was 72%.

B15: SEQ ID NO: 161 (peptide)
peptide: YHACYQAGCW[dI]W
modifications: disulfide 4-9 (inferred)
B15 was tested, and the “% bound” value [12] was 8% and the “% bound” value [13] was 10%.

B16: SEQ ID NO: 122 (peptide)
peptide: GQWTCSGDEYTWHCNYE
modifications: disulfide 5-14 (inferred)
In the case of B16, the “% bound” value [10] is reported as 71% and the “% bound” value [11] is reported as 71%.

B17: Comp ID 939 (peptide)
peptide: Cbz-GQWHCT[Dap](Gd^T″)RFPHHYCLYG
modifications: disulfide 5-14; not fully specified (C-terminus); printed as cbz-GQWHCT-Dpr(Gd^T)-RFPHHYCLYG
For B17, the “% bound” value [6] was 4% and the “% bound” value [7] was 5%.

B18: SEQ ID NO: 106 (peptide)
peptide: YHACYQAGCWIY
modifications: disulfide 4-9 (inferred)
For B18, the “% bound” value [4] was 9% and the “% bound” value [5] was 24%.
